In doi:10.1101/756874 (2019):
No end group written: not given here. *: point of attachment. TAMRA = 5-carboxytetramethylrhodamine, CN(C)c1ccc2c(-c3ccc(C(=O)*)cc3C(=O)[O-])c3ccc(=[N+](C)C)cc-3oc2c1

B1: MCL-1 (UniProt:Q07820, residues 168–327, C286S) (domain or fragment)
chain: GSEEEEDELYRQSLEIISRYLREQATGAKDTKPMGRSGATSRKALETLRRVGDGVQRNHETAFQGMLRKLDIKNEDDVKSLSRVMIHVFSDGVTNWGRIVTLISFGAFVAKHLKTINQESSIEPLAESITDVLVRTKRDWLVKQRGWDGFVEFFHVEDLEGG
B2: BAK (UniProt:Q16611, residues 16–185, C166S) (domain or fragment)
chain: EPALPSASEEQVAQDTEEVFRSYVFYRHQQEQEAEGVAAPADPEMVTLPLQPSSTMGQVGRQLAIIGDDINRRYDSEFQTMLQHLQPTAENAYEYFTKIATSLFESGINWGRVVALLGFGYRLALHVYQHGLTGFLGQVTRFVVDFMLHHSIARWIAQRGGWVAALNLGN

Tests used:
Assay in all cases: without detergent
[1] = target: B2
[2] = target: B2; remark: listed apart in the source
BAXBH3 = target: BAXBH3
MCL-1BH3 = target: MCL-1BH3
[3] = target: B1
[4] = target: B1; remark: listed apart in the source

Binder | Kd [1] [µM] | koff [2] [s⁻¹] | Kd (BAXBH3) [µM] | Kd (MCL-1BH3) [mM] | further results
{TAMRA}-SESQEDIIRNIARHLAQVGDSMDRSIPPGLVNGLA [BIDBH3, TAMRA-labelled 35-residue peptide (UniProt:P55957, residues 76–110)] | 230 | 1400 | – | – | –
B1 | – | – | 0.071 | 0.000182 | koff (BAXBH3): 0.613 s⁻¹; koff (MCL-1BH3): 0.52 s⁻¹
{TAMRA}-RGEEEQWAREIGAQLRRAADDLNAQYERRRQEEQQ [PUMABH3, TAMRA-labelled 35-residue peptide (UniProt: Q9BXH1, residues 127–161, M144A)] | 220 | 230 | – | – | Kd [3]: 0.174 nM; koff [4]: 0.00246 s⁻¹
B2 | – | – | 500 | 5 | –
{TAMRA}-ALQPSSTMGQVGRQLAIIGDDINRRYDSEFQTMLQ [BAKBH3, TAMRA-labelled 35-residue peptide (UniProt:Q16611, residues 64–98, P64A)] | 1000 | – | – | – | –
